Columns and labels:
[1] = target: Human CXCR7 (human) (UniProt P25106); assay: competition FACS with 4 nM biotinylated SDF-1 on HEK-hCXCR7 cells
[2] = target: Human CXCR7 (human) (UniProt P25106); assay: [125I]-CXCL12 displacement on NIH3T3-hCXCR7 cells
[3] = target: Human CXCR7 (human) (UniProt P25106); assay: [125I]-CXCL12 displacement on NIH3T3-hCXCR7 cells, relative to cold SDF-1
[4] = target: Human CXCR7 (human) (UniProt P25106); assay: cell-based or functional assay

Sequence of Human CXCR7 (human) (P25106 whole entry): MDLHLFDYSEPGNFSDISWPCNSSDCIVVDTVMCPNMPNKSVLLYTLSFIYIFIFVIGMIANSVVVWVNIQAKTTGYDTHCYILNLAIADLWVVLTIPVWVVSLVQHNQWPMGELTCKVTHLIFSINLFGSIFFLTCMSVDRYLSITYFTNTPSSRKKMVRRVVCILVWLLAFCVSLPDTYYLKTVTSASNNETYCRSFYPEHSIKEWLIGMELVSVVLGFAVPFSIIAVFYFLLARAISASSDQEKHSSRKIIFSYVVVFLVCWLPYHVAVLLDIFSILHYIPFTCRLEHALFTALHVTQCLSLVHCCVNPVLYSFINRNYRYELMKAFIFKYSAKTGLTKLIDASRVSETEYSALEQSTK

Substance: Mab 8F11 (Biolegend) (antibody)
- competition relative to unlabelled SDF-1 (%) [1]: > 95%
- Ki [2]: 5.9 nM
- Average SDF-1 displacement (%) [3]: 73%
- β-arrestin recruitment in absence of HSA [IC50] [4]: 12.9
- β-arrestin recruitment in presence of HSA [IC50] [4]: 34.8
